One may read the EC50 (read off the curve) as the midpoint of the concentration-response curve. What is called Kd is the equilibrium constant for the complex coming apart. By kon is commonly meant the rate constant with which the complex forms. Usually koff stands for a measure of how fast the partners let go of each other.

Experiment [1] addresses T1, monkey (rhesus) LAG3 expressed on HEK293A cells (monkey (rhesus), UniProt A0A5F8A874 23-533).
T1 construct: whole, on cells; also called HEK293A/rh LAG3
T1 sequence: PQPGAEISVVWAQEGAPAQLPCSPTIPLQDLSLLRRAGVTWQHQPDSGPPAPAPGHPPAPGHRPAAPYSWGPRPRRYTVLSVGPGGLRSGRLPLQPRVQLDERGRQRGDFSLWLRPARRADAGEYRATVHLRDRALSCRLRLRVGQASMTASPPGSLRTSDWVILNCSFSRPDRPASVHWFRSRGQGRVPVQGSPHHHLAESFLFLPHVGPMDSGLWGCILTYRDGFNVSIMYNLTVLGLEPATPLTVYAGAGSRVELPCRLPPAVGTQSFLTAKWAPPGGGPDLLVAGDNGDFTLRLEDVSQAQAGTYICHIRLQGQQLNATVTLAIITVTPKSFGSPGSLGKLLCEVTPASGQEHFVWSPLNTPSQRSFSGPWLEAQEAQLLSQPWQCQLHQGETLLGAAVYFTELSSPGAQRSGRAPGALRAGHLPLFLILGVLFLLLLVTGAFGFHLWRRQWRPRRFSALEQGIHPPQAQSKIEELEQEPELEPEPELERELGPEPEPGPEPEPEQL
Description: FACS on HEK293A cells expressing rhesus LAG3.

Experiment [2] concerns the target T2, mouse LAG3 expressed on HEK293A cells (mouse, UniProt Q61790 24-521).
T2 construct: whole, on cells; also called HEK293A/mouse LAG3
T2 sequence (looked up): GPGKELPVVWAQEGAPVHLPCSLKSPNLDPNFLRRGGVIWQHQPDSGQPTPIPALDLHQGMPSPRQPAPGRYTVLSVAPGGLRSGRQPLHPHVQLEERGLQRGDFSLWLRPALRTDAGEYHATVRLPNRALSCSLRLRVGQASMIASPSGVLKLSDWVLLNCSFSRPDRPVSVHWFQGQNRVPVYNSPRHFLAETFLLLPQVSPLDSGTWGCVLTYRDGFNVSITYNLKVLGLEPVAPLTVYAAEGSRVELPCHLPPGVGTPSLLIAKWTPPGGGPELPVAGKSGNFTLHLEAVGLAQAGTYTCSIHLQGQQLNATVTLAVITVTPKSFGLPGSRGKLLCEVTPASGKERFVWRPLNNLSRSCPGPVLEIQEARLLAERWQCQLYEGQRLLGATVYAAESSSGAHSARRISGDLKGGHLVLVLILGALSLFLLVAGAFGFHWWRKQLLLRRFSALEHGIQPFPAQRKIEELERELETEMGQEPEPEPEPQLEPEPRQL
Description: FACS on HEK293A cells expressing mouse LAG3.

For experiment [3], the target named is T3, recombinant human LAG3(ECD)-his (Sino Biological, Cat #: 16498-H08H) (human, UniProt P18627 23-450).
T3 construct: extracellular domain; Bought protein; not shown: his tag
T3 sequence (looked up): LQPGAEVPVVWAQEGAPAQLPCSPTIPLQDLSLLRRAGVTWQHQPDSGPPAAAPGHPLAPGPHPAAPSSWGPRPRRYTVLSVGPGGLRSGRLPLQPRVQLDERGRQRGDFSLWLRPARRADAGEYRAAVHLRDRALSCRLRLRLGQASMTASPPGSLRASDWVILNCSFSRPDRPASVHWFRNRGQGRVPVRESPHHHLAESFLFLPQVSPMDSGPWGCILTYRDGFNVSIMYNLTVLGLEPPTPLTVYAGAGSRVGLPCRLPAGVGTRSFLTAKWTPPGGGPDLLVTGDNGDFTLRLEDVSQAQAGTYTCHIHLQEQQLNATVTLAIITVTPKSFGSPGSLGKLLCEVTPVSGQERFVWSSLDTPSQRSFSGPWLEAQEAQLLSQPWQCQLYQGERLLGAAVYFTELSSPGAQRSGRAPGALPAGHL
Description: SPR (BIAcore 8K), human LAG3(ECD)-his coupled to chip, antibody injected, 1:1 Langmuir. The procedure:
(§1) Serially diluted antibodies at concentrations ranging from 0.3 μM to 10 μM were injected into the SPR running buffer (HBS-EP buffer, pH7.4, GE Life Sciences; US; Cat #: BR-1006-69) at 30 μL/minute. The binding capacities were calculated with the RUs of blank controls subtracted. The association rate (Ka) and dissociation rate (Kd) were calculated using the one-to-one Langmuir binding model (BIA Evaluation Software, GE Life Sciences). The equilibrium dissociation constant K_D was calculated as the kd/ka ratio.
(In general: Surface plasmon resonance follows binding to a sensor surface in real time, without labels.)

Experiment [4] concerns the target T4, human LAG3 expressed on HEK293A cells (human, UniProt P18627 23-525).
T4 construct: whole, on cells; also called HEK293A/human LAG3
T4 sequence (looked up): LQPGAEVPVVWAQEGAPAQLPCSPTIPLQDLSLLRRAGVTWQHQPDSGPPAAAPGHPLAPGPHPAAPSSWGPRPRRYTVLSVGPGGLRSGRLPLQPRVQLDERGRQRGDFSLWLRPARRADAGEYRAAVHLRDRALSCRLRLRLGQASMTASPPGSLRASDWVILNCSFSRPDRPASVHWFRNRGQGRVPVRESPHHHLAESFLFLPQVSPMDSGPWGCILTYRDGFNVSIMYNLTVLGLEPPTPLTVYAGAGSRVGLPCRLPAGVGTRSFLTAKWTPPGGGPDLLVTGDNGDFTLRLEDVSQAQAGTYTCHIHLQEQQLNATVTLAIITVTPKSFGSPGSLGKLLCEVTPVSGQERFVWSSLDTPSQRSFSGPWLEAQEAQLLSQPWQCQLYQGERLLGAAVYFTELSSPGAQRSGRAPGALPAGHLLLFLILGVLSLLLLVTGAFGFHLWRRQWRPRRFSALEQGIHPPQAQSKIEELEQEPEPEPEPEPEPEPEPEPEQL
The experiment is described as follows: FACS on HEK293A cells expressing human LAG3.

Experiment [5] deals with T3, recombinant human LAG3(ECD)-his (Sino …). The experiment is described as follows: SPR (BIAcore 8K), human LAG3(ECD)-his coupled to chip, antibody injected, 1:1 Langmuir; printed a second time as 'Ka values', read as Kd. How it is done: as §1
The target is the same in experiment [6]. Description: ELISA on coated human LAG3(ECD)-his. The procedure:
The wells were blocked with 200 µl of blocking buffer (PBS containing 1% BSA, 1% goat serum, and 0.05% Tween 20) for 2 hours at room temperature, and then 100 µl of serially diluted anti-LAG3 antibodies (starting from 40 µg/ml) were added to each well and incubated for 1 hour at RT. Plates were washed for 3 times with PBST (PBS+0.05% Tween 20), added with Goat-anti-mouse IgG-HRP (Sigma, US, Cat #: A9309-1 ml) diluted 5000×, and incubated for 1 hour at RT. Plates were developed with freshly prepared Ultra-TMB (BD, US, Cat #:555214) for 5 minutes at RT. Absorbance was read on a SpectraMaxR i3X (Molecular Devies, US) at 450 nm.
(§2) Further, the binding activities of the two antibodies to actived human PBMCs were investigated by FACS. Briefly, human PBMCs were collected by density gradient centrifugation and then re-suspended in the complete medium (RPMI medium+10% FBS+ human IL-2 (20 IU/ml, R&D, Cat #: 202-IL)+ Dynabeads™ Human T-Activator CD3/CD28 (Gibco, Cat #: 11132D)) at 37° C. under 5% CO_2 in a humidified incubator for 2 days to get activated T cells. The cells were then collected and tested by FACS as described in Example 6.

The target in experiment [7] is T1, monkey (rhesus) LAG3 expressed on …. The experiment is described as follows: FACS on HEK293A cells expressing rhesus LAG3. How it is done: (§3) Briefly, 10^5 HEK293A cells in 50 μl PBS buffers were seeded into each well of the 96-well plates and then added with 50 μl of serially diluted anti-LAG3 antibodies (5-fold dilution, starting from 40 μg/ml). After incubated at 4° C. for 1 hour, plates were washed 3 times with PBST. Then, an APC coupled Goat Anti-Mouse IgG (BioLegend, US, Cat #: 405308) diluted 500× was added to the plates. After incubation at 4° C. for 1 hour, the plates were washed with PBS for 3 times and then cell fluorescence was monitored using a FACS machine (BD).
as §2
This is another data set of the same source.

Experiment [8] addresses T5, monkey LAG3(ECD)-mFc protein (ACRO, Cat #: LA3-052A0) (monkey).
T5 construct: extracellular domain; Bought protein
The experiment is described as follows: SPR (BIAcore 8K), monkey LAG3(ECD)-mFc coupled to chip, antibody injected, 1:1 Langmuir. The procedure:
as §1

In another experiment the target is T6, Human PBMC.
T6 chain: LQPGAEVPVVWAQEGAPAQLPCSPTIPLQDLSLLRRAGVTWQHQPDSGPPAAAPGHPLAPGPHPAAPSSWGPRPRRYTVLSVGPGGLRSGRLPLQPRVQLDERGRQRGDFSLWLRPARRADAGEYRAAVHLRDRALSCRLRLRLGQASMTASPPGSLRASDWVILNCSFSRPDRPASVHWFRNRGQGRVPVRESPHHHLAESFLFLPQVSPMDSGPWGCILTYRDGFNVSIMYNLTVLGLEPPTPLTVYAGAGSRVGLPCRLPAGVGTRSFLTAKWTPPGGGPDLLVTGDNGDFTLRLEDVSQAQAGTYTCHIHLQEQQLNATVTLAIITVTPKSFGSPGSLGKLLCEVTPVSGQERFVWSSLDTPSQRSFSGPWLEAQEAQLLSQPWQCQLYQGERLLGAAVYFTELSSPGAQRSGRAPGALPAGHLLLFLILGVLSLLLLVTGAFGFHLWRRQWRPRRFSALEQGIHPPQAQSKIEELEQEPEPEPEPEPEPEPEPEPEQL
Description: FACS on activated human PBMC. How it is done: as §3, §2

The target in experiment [9] is T2, mouse LAG3 expressed on HEK293A cells. Description: FACS on HEK293A cells expressing mouse LAG3. This is another data set of the same source.

Like-named read-outs stand apart in the source and are kept apart here.

B1: chimeric 101F4 antibody (antibody, human IgG4 S228P, kappa, V domains shown)
VH: EVQLEQSGAELVRPGASVTLSCKASGYTFTDYEMHWVKQTPVYGLEWMGAIDPETGGIVYNQRFKGKAILTADKSSSTAYMELRSLTSEDSAVYYCTGAGWGYWGQGTTLTVSS
VL: DIVITQSPSSMYASLGERVTITCKASQDINSYLSWFQQKPGKSPKTLIYRANRLLDGVPSRFSGSGSGQDYSLTISSLEFEDMGLYYCLQYDEFPFTFGSGTKLEIKR
notes: Mouse variable regions on human IgG4 (S228P)/kappa constant regions; also called 101F4-CM
Turning to B1, in [1], the “EC50 (read off the curve)” value is around 0.4 µg/mL. For the same molecule, the binding result in experiment [2] is on record as “no binding”. Further, in [3], the equilibrium dissociation constant (Kd) stood at 833 pM and the on-rate (kon) was 403000 M⁻¹ s⁻¹. Further, in experiment [4], the “EC50 (read off the curve)” value is around 0.05 µg/mL. For the same molecule, the off-rate constant (koff) in [5] is 0.000335 s⁻¹.

B2: humanized (with affinity maturation) antibody 101F4H2L2-8 (antibody, human IgG4 S228P, kappa, V domains shown)
VH: QVQLVQSGAEVKKPGASVKVSCKVSGYTFTDYEMHWVRQAPGKGLEWMGAIDPETGGIVYNQRFKGRVTLTADTSTDTAYMELSSLRSEDTAVYYCATTGWNDWGQGTTVTVSS
VL: DIQMTQSPSSLSASVGDRVTITCKASQDINSYLSWYQQKPGKAPKLLIYRANRLLDGVPSRFSGSGSGQDYTLTISSLQPEDFATYYCQQYDEFPFTFGQGTKLEIKR
Regarding B2, the entries for the “EC50 (read off the curve)” value (in [6]; in experiment [7]; with Human PBMC) were around 1 µg/mL, around 0.8 µg/mL and around 0.02 µg/mL, respectively. Besides, the dissociation constant Kd in experiment [8] was found to be 980 pM; in experiment [3] it was 2050 pM. In addition, the on-rate (kon) in experiment [3] turned out to be 104000 M⁻¹ s⁻¹. In addition, the koff in experiment [5] was 0.000214 s⁻¹.

B3: chimeric 134G10 antibody (antibody, human IgG4 S228P, kappa, V domains shown)
VH: EVQLVESGGDLVKPGGSLKLSCAASGFTFSSFGMSWVRQTPDKRLEWVGIISSGGTYTFYPDILKGRFTISRDNAKNTLYLQMSSLKSEDTAMYYCARVYSDYDGRFDYWGQGTTLTVSS
VL: DIVMTQSPSSLSVSAGEKVTMNCKSSQSLLNSGNQKNYLAWYQQKPGQPPKLLIYGASTRESGVPDRFTGSGSGTDFTLTISSVQAEDLAVYYCQNDHSYPLTFGAGTKLELKR
notes: Mouse variable regions on human IgG4 (S228P)/kappa constant regions; also called 134G10-CM
Take B3: in [3], the dissociation constant Kd was found to be 737 pM and the kon stood at 93900 M⁻¹ s⁻¹. Also, the concentration for a half-maximal effect (EC50 (read off the curve)) in experiment [4] is around 0.09 µg/mL. For the same molecule, in [9], the binding result is reported as “no binding”.

Source of the values: patent US10946092 (BEIJING MABWORKS BIOTECH, dated 2021).
